From patent US20200207859A1 (priority 2017, published 2020) come the findings set out here.

Where only a bound is given, the exact number is not on record here.

The test system of experiment [1] is ARD (MM). Briefly: Cell killing assay (cell proliferation, Cell Titer-Glo). The class given is cell-based, human. As to conditions: 72 hrs. On the procedure: (§1) Cytotoxicity effects of the free drug linkers and conjugates were measured with a cell proliferation assay. A total of 12500 cells in a volume of 25 μl were seeded in a 384-well flat bottom white polystyrene plate on the day of assay. Free drug-linkers and conjugates were formulated at 2× starting concentration (1000 nM for free drug linkers and 100 nM for ADCs) in RPMI medium and filtered through MultiScreen HTS 96-Well Filter Plates (Millipore). Filter sterilized samples were serial diluted (1:3) under sterile conditions and added into treatment wells. Plates were cultured at 37° C. in a CO2 incubator for 72 hrs. For cell viability measurement, 30 μl of Cell Titer-Glo® reagent (Promega Corp.) was added into each well, and plates processed as per product instructions. Relative luminescence was measured on an ENVISION® plate reader (Perkin-Elmer; Waltham, Mass.). Relative luminescence readings were converted to % viability using untreated cells as controls. Data was fitted with non-linear regression analysis, using log(inhibitor) vs. response, variable slope, 4 parameter fit equation using GraphPad Prism. Data was expressed as % relative cell viability vs. dose of free drug-linker or conjugate in nM.
In general terms: In ATP-based viability assays light output follows the ATP content of the culture.

In experiment [2] the test system is SU-DHL-6 (NHL). The description is as above. The class given is cell-based, human. Conditions: 72 hrs. On the procedure: as §1
Experiment [3] relates to ARP-1 (MM). The description is as above. It counts as cell-based, human. Conditions: 72 hrs. On the procedure:
as §1

In experiment [4] the test system is RPMI-6666 (HL). Described as above. The class given is cell-based. Conditions: 72 hrs. On the procedure: as §1
Experiment [5] relates to JVM-13 (CLL). The experiment is described as above. The class given is cell-based. Conditions: 72 hrs. On the procedure:
as §1

Experiment [6] deals with BDCM (AML). Described as above. The class given is cell-based. As to conditions: 72 hrs. On the procedure: as §1
Experiment [7] has as its system SUP-B15 (ALL). Described as above. It counts as cell-based. Conditions: 72 hrs. On the procedure:
as §1

For experiment [8], the system named is OPM-2 (MM). Described as above. As to conditions: 72 hrs. Set-up: key to Cell Killing Activity Span: NK = no killing; NB = no binding. The class given is cell-based. On the procedure:
as §1

In experiment [9] the test system is RPMI-8226 (MM). Described as above. The class given is cell-based. Set-up: key to Cell Killing Activity Span: NK = no killing; NB = no binding. Conditions: 72 hrs. On the procedure: as §1
In experiment [10] the test system is K562 (CML). Described as above. It counts as cell-based. Set-up: key to Cell Killing Activity Span: NK = no killing; NB = no binding. Conditions: 72 hrs. On the procedure: as §1
Experiment [11] has as its target CD74 (human), P04233. Nature of the experiment: cell-based or functional assay.

Usually IC50 stands for the concentration needed to halve the response being measured.

Chain of CD74 (human), P04233 (P04233 whole entry): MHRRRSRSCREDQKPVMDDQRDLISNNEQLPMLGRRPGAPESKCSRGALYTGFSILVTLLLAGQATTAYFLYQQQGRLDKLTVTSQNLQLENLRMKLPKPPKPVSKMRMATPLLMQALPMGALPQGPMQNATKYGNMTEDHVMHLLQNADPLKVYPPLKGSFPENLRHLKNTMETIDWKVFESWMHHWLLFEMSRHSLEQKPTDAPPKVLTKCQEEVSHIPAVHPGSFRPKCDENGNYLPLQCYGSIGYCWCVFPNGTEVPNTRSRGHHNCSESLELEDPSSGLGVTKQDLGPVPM

With `COc1cc2cc(c1Cl)N(C)C(=O)C[C@H](OC(=O)[C@H](C)N(C)C(=O)CCCC(=O)N(C)CCOCCOCCOCCOCCC(=O)NCCC(=O)N1Cc3ccccc3C#Cc3ccccc31)[C@]1(C)O[C@H]1[C@H](C)[C@@H]1C[C@@](O)(NC(=O)O1)[C@H](OC)/C=C/C=C(/C)C2` [Free Linker-Drug, DBCO-PEG4-maytansine, reference compound], the “Cell Killing Activity Span” value in experiment [1] turned out to be 40%; in experiment [2], 98%; in experiment [3], 77%; in experiment [4], 85%; in [5], 65%; in experiment [6], 76%. In addition, the “Cell Killing Activity Span” value in experiment [7] is listed as 65%; in experiment [8], “NK”; in experiment [9] it was “NK”; in experiment [10], “NK”.

B1: Conjugate A (anti-CD74 IgG-DBCO-PEG4-maytansine conjugate) (antibody, V domains shown)
VH: QVQLVESGGGVVQPGRSLRLSCAASGFNFSDYGMHWVRQAPGKGLEWVAVIWYDGSISYYADSVKGRFTISRDNSKNTLYLQMNSLRAEDTAVYYCARGGTVEHGAVYGTDVWGQGTTVTVSS
VL: DIQMTQSPSSVSASVGDRVTITCRASQGIGSWLAWYQQKPGKAPKLLIYAADRLQSGVPSRFSGSGSGTDFTLTISSLQPEDFATYYCQQYHTYPLTFGGGTKVEIK
modifications: here or on the partner: para-azidomethyl-L-phenylalanine (pAMF, residue 30) at heavy chain EU position 404 (constant region, outside SEQ ID NO 236), linked to DBCO-PEG4-maytansine
In [11], B1 displayed a cell killing EC50, HH T lymphoma cells, 120 h CellTiter-Glo of 0.22 nM; a cell killing EC50, HuT-78 T lymphoma cells, 120 h CellTiter-Glo of 0.59 nM; a cell killing EC50, My-La T lymphoma cells, 120 h CellTiter-Glo of 0.54 nM; a cell killing IC50, ARD (MM) cells of 8.6 nM. Also, in [11], the cell killing IC50, ARD (MM) cells, 72 h CellTiter-Glo was determined as 8.6 nM; the cell killing IC50, ARP-1 (MM) cells is 9 nM; the cell killing IC50, ARP-1 (MM) cells, 72 h CellTiter-Glo is 9 nM; the cell killing IC50, BDCM (AML) cells came out at 4.6 nM. In [11], this molecule returned a cell killing IC50, BDCM (AML) cells, 72 h CellTiter-Glo of 4.6 nM; a cell killing IC50, JVM-13 (CLL) cells of 1.5 nM; a cell killing IC50, JVM-13 (CLL) cells, 72 h CellTiter-Glo of 1.5 nM; a cell killing IC50, RPMI-6666 (HL) cells of 1 nM. In experiment [11], this molecule registered a cell killing IC50, RPMI-6666 (HL) cells, 72 h CellTiter-Glo of 1 nM; a cell killing IC50, SU-DHL-6 (NHL) cells of 0.6 nM; a cell killing IC50, SU-DHL-6 (NHL) cells, 72 h CellTiter-Glo of 0.6 nM; a cell killing IC50, SUP-B15 (ALL) cells of 3 nM. In experiment [11], this molecule returned a cell killing IC50, SUP-B15 (ALL) cells, 72 h CellTiter-Glo of 3 nM; a cell killing Span, ARD (MM) cells of 40%; a cell killing Span, ARD (MM) cells, 72 h CellTiter-Glo of 38%; a cell killing Span, ARP-1 (MM) cells of 77%. Further, in experiment [11], the cell killing Span, ARP-1 (MM) cells, 72 h CellTiter-Glo is 74%; the cell killing Span, BDCM (AML) cells is 76%; the cell killing Span, BDCM (AML) cells, 72 h CellTiter-Glo is 74%; the cell killing Span, HH T lymphoma cells, 120 h CellTiter-Glo came to 77%. In experiment [11], this molecule had a cell killing Span, HuT-78 T lymphoma cells, 120 h CellTiter-Glo of 72%; a cell killing Span, JVM-13 (CLL) cells of 65%; a cell killing Span, JVM-13 (CLL) cells, 72 h CellTiter-Glo of 58%; a cell killing Span, My-La T lymphoma cells, 120 h CellTiter-Glo of 73%. In [11], the cell killing Span, RPMI-6666 (HL) cells amounted to 85%; the cell killing Span, RPMI-6666 (HL) cells, 72 h CellTiter-Glo was 84%; the cell killing Span, SU-DHL-6 (NHL) cells worked out at 98%; the cell killing Span, SU-DHL-6 (NHL) cells, 72 h CellTiter-Glo turned out to be 98%. In [11], this molecule yielded a cell killing Span, SUP-B15 (ALL) cells of 65% and a cell killing Span, SUP-B15 (ALL) cells, 72 h CellTiter-Glo of 64%.

B2: Conjugate C (anti-CD74 IgG-val-cit-PAB-hemiasterlin conjugate) (antibody, V domains shown)
VH: B1 VH
VL: B1 VL
modifications: here or on the partner: modified amino acid residue 30 (pAMF) according to Example 2, position not stated for this conjugate, linked to val-cit-PAB-hemiasterlin
Regarding B2, in experiment [11], the cell killing IC50, JVM-13 (CLL) cells turned out to be 0.9 nM; the cell killing IC50, RPMI-6666 (HL) cells turned out to be 0.9 nM; the cell killing IC50, SU-DHL-6 (NHL) cells was 0.3 nM; the cell killing Span, ARD (MM) cells worked out at 74%. For the same molecule, in experiment [11], the cell killing Span, ARP-1 (MM) cells is 87%; the cell killing Span, BDCM (AML) cells amounted to 89%; the cell killing Span, JVM-13 (CLL) cells turned out to be 54%; the cell killing Span, RPMI-6666 (HL) cells turned out to be 84%. Further, in experiment [11], the cell killing Span, RPMI-8226 (MM) cells stood at 43%; the cell killing Span, SU-DHL-6 (NHL) cells is 97%; the cell killing Span, SUP-B15 (ALL) cells was determined as 68%.

B3: Conjugate B (anti-CD74 IgG-PEG4-maytansine conjugate) (antibody, V domains shown)
VH: B1 VH
VL: B1 VL
modifications: here or on the partner: modified amino acid residue 30 (pAMF) according to Example 2, position not stated for this conjugate, linked to a PEG4-maytansine linker-payload
For B3, in [11], the cell killing IC50, ARD (MM) cells was 31 nM; the cell killing IC50, ARP-1 (MM) cells is 16 nM; the cell killing IC50, BDCM (AML) cells came to 15 nM; the cell killing IC50, JVM-13 (CLL) cells is 2 nM. Further, in experiment [11], the cell killing IC50, RPMI-6666 (HL) cells was determined as 1.3 nM; the cell killing IC50, RPMI-8226 (MM) cells was 51 nM; the cell killing IC50, SU-DHL-6 (NHL) cells is 1.3 nM; the cell killing IC50, SUP-B15 (ALL) cells worked out at 5.7 nM. For the same molecule, in experiment [11], the cell killing Span, ARD (MM) cells was determined as 53%; the cell killing Span, ARP-1 (MM) cells turned out to be 82%; the cell killing Span, BDCM (AML) cells came to 95%; the cell killing Span, JVM-13 (CLL) cells was determined as 69%. In experiment [11], this molecule came in with a cell killing Span, RPMI-6666 (HL) cells of 89%; a cell killing Span, RPMI-8226 (MM) cells of 41%; a cell killing Span, SU-DHL-6 (NHL) cells of 98%; a cell killing Span, SUP-B15 (ALL) cells of 72%.

B4: Conjugate E: anti-CD74 IgG containing residue 30 conjugated to a PEG4-MMAF precursor (conjugate)
VH: B1 VH
VL: B1 VL
In the case of B4, the “Cell Killing Activity Span” value amounted to 20% in experiment [1]; 98% in experiment [2]; 71% in [3]; 47% in experiment [5]; 78% in [6]; 58% in experiment [7]. In addition, the “Cell Killing Activity Span” value in experiment [8], in [9] and in [10] was “NK” throughout. The IC50 in experiment [1] stood at 18 nM; in [2], 0.5 nM; in experiment [3], 6 nM; in experiment [5], 7.8 nM; in [6], 3.3 nM; in experiment [7], 2.5 nM. Moreover, the IC50 in experiment [8], in [9] and in experiment [10] was over 50 nM each time.

B5: Conjugate F (anti-CD74 IgG-PEG4-MMAE conjugate) (antibody, V domains shown)
VH: B1 VH
VL: B1 VL
modifications: here or on the partner: modified amino acid residue 30 (pAMF) according to Example 2, position not stated for this conjugate, linked to PEG4-MMAE
B5: in experiment [11], the cell killing IC50, ARD (MM) cells is 16 nM; the cell killing IC50, ARP-1 (MM) cells was found to be 4.2 nM; the cell killing IC50, BDCM (AML) cells is 1.4 nM; the cell killing IC50, JVM-13 (CLL) cells is 5 nM. Also, in [11], the cell killing IC50, RPMI-6666 (HL) cells came out at 0.7 nM; the cell killing IC50, RPMI-8226 (MM) cells was 20 nM; the cell killing IC50, SU-DHL-6 (NHL) cells was determined as 0.3 nM; the cell killing IC50, SUP-B15 (ALL) cells is 3.7 nM. In experiment [11], this molecule displayed a cell killing Span, ARD (MM) cells of 73%; a cell killing Span, ARP-1 (MM) cells of 93%; a cell killing Span, BDCM (AML) cells of 94%; a cell killing Span, JVM-13 (CLL) cells of 59%. In addition, in [11], the cell killing Span, RPMI-6666 (HL) cells came out at 82%; the cell killing Span, RPMI-8226 (MM) cells was found to be 31%; the cell killing Span, SU-DHL-6 (NHL) cells was 97%; the cell killing Span, SUP-B15 (ALL) cells stood at 65%.

B6: Conjugate E (anti-CD74 IgG-PEG4-MMAF conjugate) (antibody, V domains shown)
VH: B1 VH
VL: B1 VL
modifications: here or on the partner: modified amino acid residue 30 (pAMF) according to Example 2, position not stated for this conjugate, linked to PEG4-MMAF
In [11], B6 displayed a cell killing IC50, ARD (MM) cells of 18 nM; a cell killing IC50, ARP-1 (MM) cells of 6 nM; a cell killing IC50, BDCM (AML) cells of 3.3 nM; a cell killing IC50, JVM-13 (CLL) cells of 7.8 nM. In experiment [11], the cell killing IC50, RPMI-6666 (HL) cells amounted to 1.5 nM; the cell killing IC50, SU-DHL-6 (NHL) cells was determined as 0.5 nM; the cell killing IC50, SUP-B15 (ALL) cells is 2.5 nM; the cell killing Span, ARD (MM) cells came out at 20%. Moreover, in experiment [11], the cell killing Span, ARP-1 (MM) cells amounted to 71%; the cell killing Span, BDCM (AML) cells is 78%; the cell killing Span, JVM-13 (CLL) cells stood at 47%; the cell killing Span, RPMI-6666 (HL) cells stood at 80%. In experiment [11], this molecule returned a cell killing Span, SU-DHL-6 (NHL) cells of 98% and a cell killing Span, SUP-B15 (ALL) cells of 58%.
